Results as given in PMC7539366 (Cell host & microbe, 2020).

What was measured:
[1] = molecular target: CVA16 mature virion (strain CVA16/190) (coxsackievirus A16 (strain CVA16/190))
[2] = molecular target: T1, CVA16 empty particle (strain CVA16/190) (Coxsackievirus A16, strain CVA16/190 …, strain); assay: ELISA
T1 chain 1: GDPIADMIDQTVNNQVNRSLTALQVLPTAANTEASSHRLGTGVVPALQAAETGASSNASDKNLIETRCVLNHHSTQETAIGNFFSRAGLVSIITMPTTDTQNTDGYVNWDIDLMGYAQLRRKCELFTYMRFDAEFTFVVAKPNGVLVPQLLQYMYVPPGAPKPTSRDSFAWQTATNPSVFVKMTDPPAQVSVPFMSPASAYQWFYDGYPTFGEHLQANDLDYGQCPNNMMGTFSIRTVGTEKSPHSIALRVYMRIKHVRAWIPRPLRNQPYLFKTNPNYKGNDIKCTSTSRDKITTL
T1 chain 2: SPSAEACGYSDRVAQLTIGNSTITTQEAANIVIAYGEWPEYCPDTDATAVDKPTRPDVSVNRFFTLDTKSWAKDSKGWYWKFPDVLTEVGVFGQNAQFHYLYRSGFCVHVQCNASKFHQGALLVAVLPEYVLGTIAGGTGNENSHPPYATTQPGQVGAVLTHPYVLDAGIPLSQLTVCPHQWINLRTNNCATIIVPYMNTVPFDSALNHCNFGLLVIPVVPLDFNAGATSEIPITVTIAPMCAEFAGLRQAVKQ
T1 chain 3: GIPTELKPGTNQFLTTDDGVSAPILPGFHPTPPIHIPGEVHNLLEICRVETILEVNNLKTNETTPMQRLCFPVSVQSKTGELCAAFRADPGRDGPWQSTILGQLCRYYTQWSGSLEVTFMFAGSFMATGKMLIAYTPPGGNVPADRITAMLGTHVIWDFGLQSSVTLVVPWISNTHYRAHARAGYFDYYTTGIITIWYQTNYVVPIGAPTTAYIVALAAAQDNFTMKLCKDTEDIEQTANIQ

[3] = molecular target: T1, CVA16 empty particle (strain CVA16/190); assay: cryo-EM structure
[4] = molecular target: T2, CVA16 A-particle (strain CVA16/190) (Coxsackievirus A16, strain CVA16/190 …, strain); assay: cryo-EM structure
T2 chain 1: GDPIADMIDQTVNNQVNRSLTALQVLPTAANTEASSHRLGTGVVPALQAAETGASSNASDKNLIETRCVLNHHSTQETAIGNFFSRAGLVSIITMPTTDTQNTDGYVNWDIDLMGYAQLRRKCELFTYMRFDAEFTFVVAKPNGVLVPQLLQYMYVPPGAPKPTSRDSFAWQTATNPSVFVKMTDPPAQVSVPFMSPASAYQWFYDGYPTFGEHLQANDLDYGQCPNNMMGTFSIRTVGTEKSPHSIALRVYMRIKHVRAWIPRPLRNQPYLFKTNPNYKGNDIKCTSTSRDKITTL
T2 chain 2: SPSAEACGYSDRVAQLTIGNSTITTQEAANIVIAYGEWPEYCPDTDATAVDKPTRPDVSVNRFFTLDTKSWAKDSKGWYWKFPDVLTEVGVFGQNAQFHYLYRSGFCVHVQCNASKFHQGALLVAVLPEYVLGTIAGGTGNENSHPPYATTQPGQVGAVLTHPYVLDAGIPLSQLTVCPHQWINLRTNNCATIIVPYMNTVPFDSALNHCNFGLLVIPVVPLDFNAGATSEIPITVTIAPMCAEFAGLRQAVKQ
T2 chain 3: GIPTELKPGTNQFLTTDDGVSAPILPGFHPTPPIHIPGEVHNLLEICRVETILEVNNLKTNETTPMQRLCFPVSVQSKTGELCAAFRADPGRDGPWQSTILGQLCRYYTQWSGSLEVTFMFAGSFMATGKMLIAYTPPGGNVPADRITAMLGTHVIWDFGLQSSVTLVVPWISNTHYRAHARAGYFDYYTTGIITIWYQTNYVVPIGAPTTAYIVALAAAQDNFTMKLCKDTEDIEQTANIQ

[5] = molecular target: T3, CVA16 mature virion (strain CVA16/190) (Coxsackievirus A16, strain CVA16/190 …, strain); assay: cryo-EM structure
T3 chain 1: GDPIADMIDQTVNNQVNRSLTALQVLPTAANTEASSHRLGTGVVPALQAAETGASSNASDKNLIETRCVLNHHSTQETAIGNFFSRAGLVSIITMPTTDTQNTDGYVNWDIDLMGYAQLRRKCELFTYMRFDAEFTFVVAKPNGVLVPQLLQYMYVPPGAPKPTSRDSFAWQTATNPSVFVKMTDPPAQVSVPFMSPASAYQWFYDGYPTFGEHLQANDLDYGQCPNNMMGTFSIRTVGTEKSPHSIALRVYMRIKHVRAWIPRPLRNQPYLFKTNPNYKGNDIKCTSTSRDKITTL
T3 chain 2: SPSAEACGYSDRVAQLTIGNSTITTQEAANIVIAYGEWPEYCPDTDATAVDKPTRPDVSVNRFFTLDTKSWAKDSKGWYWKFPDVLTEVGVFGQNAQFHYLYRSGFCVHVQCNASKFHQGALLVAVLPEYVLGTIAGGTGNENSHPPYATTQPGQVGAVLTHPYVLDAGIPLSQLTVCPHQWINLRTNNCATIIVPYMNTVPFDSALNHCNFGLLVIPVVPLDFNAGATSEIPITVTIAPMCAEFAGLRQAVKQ
T3 chain 3: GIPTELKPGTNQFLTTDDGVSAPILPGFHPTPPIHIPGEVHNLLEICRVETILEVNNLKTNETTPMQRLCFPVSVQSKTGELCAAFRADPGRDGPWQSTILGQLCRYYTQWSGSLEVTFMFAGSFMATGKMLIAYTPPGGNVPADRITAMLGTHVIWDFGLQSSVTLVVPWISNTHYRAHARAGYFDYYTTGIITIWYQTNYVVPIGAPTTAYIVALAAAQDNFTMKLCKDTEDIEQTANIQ
T3 chain 4: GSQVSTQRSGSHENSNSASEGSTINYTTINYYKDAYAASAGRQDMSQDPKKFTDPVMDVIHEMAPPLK

B1: Mouse Monoclonal Antibody-18A7 (antibody, V domains shown)
VH: EVQLQQSGPELVKPGASVKMSCKASGYTFTDYYMKWVKQSHGKSLEWIGDINPYNGDSFNNQKFKGKATLTVDTSSSTAYMQLNSLTSEDSAVYYCAIPYDYDEGWFAYWGQGTLVTVSA
VL: DIVMSQSPSSLAVSVGEKVTMSCKSSQSLLYSNNQKNYLAWYQQKPGQSPQLLIYWASTRESGVPDRFTGSESGTDFTLTISSVKAEDLAVFYCQQYYNYPWTFGGGTKLEIK
IC50 of neutralisation of CVA16/190 in RD cells (micro-neutralization, Elispot) [1]: 0.04 µg/mL

B2: Mouse Monoclonal Antibody-14B10 (antibody, V domains shown)
VH: QVQLQQSGPELVKPGASVKISCKASGYEFSRSWMNWVKQRPGQGLEWIGRIYPGDGDTNYNGKFRDKATLTADKSSSTAYMQLSRLTSVDSAVYFCARRRGYFDVWGAGTTVTVS
VL: DIQMTQSSSYLSVSLGGRVTITCKASDHINNWLAWYQQKPGNAPRLLISGATSLETGIPSRFSGSGSGKDYTLSITSLQTEDVGTYYCQQYWSTPTFGGGTKLEIK
binding result [2]: no binding | IC50 of neutralisation of CVA16/190 in RD cells (micro-neutralization, Elispot) [1]: 1.01 µg/mL

B3: Mouse Monoclonal Antibody-NA9D7 (antibody, V domains shown)
VH: EVQLQQSGPELVKPGASVKMSCKASGYTFTDYYMKWVKQSHGKSLEWIGDINPNNGATSYNQKFKGKATLTVDKSSSTAYMQLNSLTSEDSAVYYCARRGYGLYYAMDYWGQGTSVTVSS
VL: EIVLTQSPTTMAASPGEKITITCSASSSISSNYLHWYQQKPGFSPKLLIYRTSNLASGVPARFSGSGSGTSYSLTIGTMEAEDVATYYCQQGSSIPHTFGGGTKLEIK
binding result [2]: no binding | IC50 of neutralisation of CVA16/190 in RD cells (micro-neutralization, Elispot) [1]: 1.96 µg/mL

B4: 18A7 Fab fragment (Fab, V domains shown)
VH: EVQLQQSGPELVKPGASVKMSCKASGYTFTDYYMKWVKQSHGKSLEWIGDINPYNGDSFNNQKFKGKATLTVDTSSSTAYMQLNSLTSEDSAVYYCAIPYDYDEGWFAYWGQGTLVTVSA
VL: DIVMSQSPSSLAVSVGEKVTMSCKSSQSLLYSNNQKNYLAWYQQKPGQSPQLLIYWASTRESGVPDRFTGSESGTDFTLTISSVKAEDLAVFYCQQYYNYPWTFGGGTKLEIK
stoichiometry N [3]: 12 Fabs per viral particle | stoichiometry N [4]: 12 Fabs per viral particle

B5: 14B10 Fab fragment (Fab, V domains shown)
VH: QVQLQQSGPELVKPGASVKISCKASGYEFSRSWMNWVKQRPGQGLEWIGRIYPGDGDTNYNGKFRDKATLTADKSSSTAYMQLSRLTSVDSAVYFCARRRGYFDVWGAGTTVTVS
VL: DIQMTQSSSYLSVSLGGRVTITCKASDHINNWLAWYQQKPGNAPRLLISGATSLETGIPSRFSGSGSGKDYTLSITSLQTEDVGTYYCQQYWSTPTFGGGTKLEIK
stoichiometry N [5]: ≤ 60 Fabs per mature virion

B6: NA9D7 Fab fragment (Fab, V domains shown)
VH: EVQLQQSGPELVKPGASVKMSCKASGYTFTDYYMKWVKQSHGKSLEWIGDINPNNGATSYNQKFKGKATLTVDKSSSTAYMQLNSLTSEDSAVYYCARRGYGLYYAMDYWGQGTSVTVSS
VL: EIVLTQSPTTMAASPGEKITITCSASSSISSNYLHWYQQKPGFSPKLLIYRTSNLASGVPARFSGSGSGTSYSLTIGTMEAEDVATYYCQQGSSIPHTFGGGTKLEIK
stoichiometry N [5]: ≤ 60 Fabs per mature virion
